Consider six molecules from US20220088190A1 (published 2022).

Assay [1] addresses T1, RAS G12D peptide on HLA-B*07:02 (human).
T1 peptide: GADGVGKSAL
In words: activation reporter or marker.

Assay [2] has as its target T2, RAS G12V peptide on HLA-B*07:02 (human).
T2 peptide: GAVGVGKSAL
Description: activation reporter or marker.

Assay [3] has as its target T3, RAS G12C peptide on HLA-B*07:02 (human).
T3 peptide: GACGVGKSAL
In words: activation reporter or marker.

The target of assay [4] is T4, RAS wild type peptide on HLA-B*07:02 (human).
T4 peptide: GAGGVGKSAL
In words: activation reporter or marker.

For assay [5], the target named is T5, RAS G12R peptide on HLA-B*07:02 (human).
T5 peptide: GARGVGKSAL
In words: multimer staining.

Assay [6] has as its target T6, RAS wild type peptide on HLA-A*11:01 (human).
T6 peptide: VVVGAGGVGK
In words: killing.

Assay [7] addresses T7, RAS G12V peptide on HLA-A*03:01 (human).
T7 peptide: VVVGAVGVGK
In words: cytokine release.

For assay [8], the target named is T8, RAS G12C peptide on HLA-A*11:01 (human).
T8 peptide: VVVGACGVGK
In words: activation reporter or marker.

Assay [9] has as its target T9, RAS G12V peptide on HLA-A*11:01 (human).
T9 peptide: VVVGAVGVGK
Description: multimer staining.

Assay [10] deals with T4, RAS wild type peptide on HLA-B*07:02. In words: killing.
The target in assay [11] is T10, RAS wild type peptide on HLA-A*03:01 (human).
T10 peptide: VVVGAGGVGK
In words: killing.

Assay [12] deals with T11, RAS G12R peptide on HLA-A*03:01 (human).
T11 peptide: VVVGARGVGK
In words: activation reporter or marker.

Assay [13] has as its target T12, RAS G12C peptide on HLA-A*03:01 (human).
T12 peptide: VVVGACGVGK
In words: activation reporter or marker.

The target of assay [14] is T13, RAS G12D peptide on HLA-A*03:01 (human).
T13 peptide: VVVGADGVGK
In words: activation reporter or marker.

Assay [15] addresses T7, RAS G12V peptide on HLA-A*03:01. Description: multimer staining.
For assay [16], the target named is T14, RAS wild type peptide on HLA-A*11:01 (human).
T14 peptide: VVGAGGVGK
In words: activation reporter or marker.

The target of assay [17] is T15, RAS G12D peptide on HLA-A*11:01 (human).
T15 peptide: VVGADGVGK
In words: activation reporter or marker.

Assay [18] has as its target T16, RAS G12C peptide on HLA-A*11:01 (human).
T16 peptide: VVGACGVGK
In words: activation reporter or marker.

The target of assay [19] is T17, RAS G12V peptide on HLA-A*11:01 (human).
T17 peptide: VVGAVGVGK
Description: multimer staining.

B1: TCR847 (TCR, V domains shown)
Valpha: SQQGEEDPQALSIQEGENATMNCSYKTSINNLQWYRQNSGRGLVHLILIRSNEREKHSGRLRVTLDTSKKSSSLLITASRAADTASYFCATFPNFGNEKLTFGTGTRLTIIP
Vbeta: DAGITQSPRHKVTETGTPVTLRCHQTENHRYMYWYRQDPGHGLRLIHYSYGVKDTDKGEVSDGYSVSRSKTEDFLLTLESATSSQTSVYFCAISESERYYEQYFGPGTRLTVT
Consider B1, for which the binding result in assay [1] was “no recognition”; in assay [2], “no recognition”; in assay [3] it was “no recognition”; in assay [4] it was “no recognition”; in [5], “recognises”.

B2: TCR831 (TCR, V domains shown)
Valpha: ELKVEQNPLFLSMQEGKNYTIYCNYSTTSDRLYWYRQDPGKSLESLFVLLSNGAVKQEGRLMASLDTKARLSTLHITAAVHDLSATYFCAVDKDGGYQKVTFGTGTKLQVIP
Vbeta: GAVVSQHPSWVICKSGTSVKIECRSLDFQATTMFWYRQFPKQSLMLMATSNEGSKATYEQGVEKDKFLINHASLTLSTLTVTSAHPEDSSFYICSASPRAGQLSSYNSPLHFGNGTRLTVT
Consider B2, for which the binding result is “no recognition” in assay [6], “no recognition” in [7], “recognises” in assay [8] and “recognises” in assay [9].

B3: TCR864 (TCR, V domains shown)
Valpha: LAKTTQPISMDSYEGQEVNITCSHNNIATNDYITWYQQFPSQGPRFIIQGYKTKVTNEVASLFIPADRKSSTLSLPRVSLSDTAVYYCLVGDFNSNSGYALNFGKGTSLLVTP
Vbeta: GAGVSQSPSNKVTEKGKDVELRCDPISGHTALYWYRQRLGQGLEFLIYFQGNSAPDKSGLPSDRFSAERTGESVSTLTIQRTQQEDSAVYLCASKVYGYTFGSGTRLTVV
As to B3, the binding result was “no recognition” in assay [10]; “no recognition” in [1]; “no recognition” in assay [2]; “no recognition” in [3]; “recognises” in assay [5].

B4: TCR896 (TCR, V domains shown)
Valpha: AQKVTQAQTEISVVEKEDVTLDCVYETRDTTYYLFWYKQPPSGELVFLIRRNSFDEQNEISGRYSWNFQKSTSSFNFTITASQVVDSAVYFCALSEAGTYKYIFGTGTRLKVLA
Vbeta: DSGVTQTPKHLITATGQRVTLRCSPRSGDLSVYWYQQSLDQGLQFLIQYYNGEERAKGNILERFSAQQFPDLHSELNLSSLELGDSALYFCASSVAGGGQETQYFGPGTRLLVL
For the molecule B4, the binding result is “no recognition” in assay [11]; “no recognition” in [12]; “no recognition” in assay [13]; “no recognition” in assay [14]; “recognises” in assay [15].

B5: TCR897 (TCR, V domains shown)
Valpha: SQQGEEDPQALSIQEGENATMNCSYKTSINNLQWYRQNSGRGLVHLILIRSNEREKHSGRLRVTLDTSKKSSSLLITASRAADTASYFCATDPGGFKTIFGAGTRLFVKA
Vbeta: EAGVAQSPRYKIIEKRQSVAFWCNPISGHATLYWYQQILGQGPKLLIQFQNNGVVDDSQLPKDRFSAERLKGVDSTLKIQPAKLEDSAVYLCASSLYGGSISYEQYFGPGTRLTVT
In the case of B5, the binding result in assay [16] is recorded as “no recognition”; in assay [17] it was “recognises”; in [18] it was “recognises”; in [19] it was “recognises”.

B6: TCR833 (TCR, V domains shown)
Valpha: RKEVEQDPGPFNVPEGATVAFNCTYSNSASQSFFWYRQDCRKEPKLLMSVYSSGNEDGRFTAQLNRASQYISLLIRDSKLSDSATYLCAVNPPDTGFQKLVFGTGTRLLVSP
Vbeta: DVKVTQSSRYLVKRTGEKVFLECVQDMDHENMFWYRQDPGLGLRLIYFSYDVKMKEKGDIPEGYSVSREKKERFSLILESASTNQTSMYLCASSLSFRQGLREQYFGPGTRLTVT
Take B6: the binding result is “no recognition” in assay [6], “no recognition” in [7], “recognises” in assay [8] and “recognises” in assay [9].
